According to patent US20230094597A1, “COMPOSITIONS AND METHODS FOR TREATING DISORDERS CHARACTERIZED WITH EXCESSIVE OSTEOCLAST ACTIVITY” (THE JOHNS HOPKINS UNIVERSITY, priority 2021, published 2023):

Columns and labels:
WT BMMs = assay: In vitro osteoclast differentiation assay (TRAP staining) of BMMs; type: cell-based, mouse
Siglec15 = Siglec15 expression in BMMs (flow cytometry, immunostaining); type: cell-based, mouse
Experimental: To understand the detailed mechanism of Siglec15 regulating osteoclast formation, we incubated WT BMMs with biotinylated Siglec15 monoclonal antibody and manually separated Siglec15^+ BMMs from Siglec15- BMMs using anti-biotin microbeads and magnetic separators (FIG. 4A). Separated Siglec15* and Siglec15- BMMs were then stimulated with M-CSF and RANKL for osteoclastogenesis. […] One study reported that osteoclast fusion might be initiated by a small subset of progenitors (Levaot et al., 2015); therefore, we combined separated Siglec15^+ BMMs with BMMs isolated from Siglec15^ΔLysM mice in different proportions (1%, 5%, and 10%). […] Immunofluorescent staining confirmed that Siglec15^+ and Siglec15^− BMMs can form multinucleated osteoclasts with normal actin rings, and the expression of Siglec15 was restored in Siglec15^− BMMs during osteoclastogenesis (FIG. 8). […] BMMs cultured with RANKL alone, absent M-CSF, cannot survive during osteoclastogenesis (FIG. 4D, E).
(§1) To explore the molecular mechanism of M-CSF activation of Siglec15, we used U0126, a selective of mitogen-activated protein kinase kinases inhibitor of MEK1 and MEK2. […] To understand Siglec15 transcription, we analyzed the core enhancer of Siglec15 and found three binding sites of MYC with high species […]. Chromatin immunoprecipitation (ChIP) assay was performed to investigate the interaction of MYC with the 3 deoxyribonucleic acid binding sites. […] MYC recognizes and binds to E-box domains with consensus recognition sequence of CACGTG or CATGTG (Guccione et al., 2006). In the 310-bp binding region, we recognized the sequences of TATGTG and AATGTG that share 80% similarities with reported binding bases. To confirm the role of these MYC recognition sequences, we constructed an enhancer reporter with this Siglec15 enhancer, and 3 mutants were derived by site-directed mutagenesis to inactivate the MYC recognition (FIG. 11E). […] Thus, M-CSF activates Siglec15 expression via MEK-ERK-MYC cascade.
Mouse bone specimens were first fixed and then decalcified using 10% EDTA (Sigma-Aldrich, St. Louis, Mo., USA) for 14 days with constant shaking. For the histological assays, the detailed protocols were reported in a previous study (Dou, J. Bone Min. Res. 33, 899-908 (2018)). In short, the samples were then dehydrated and embedded in optimal cutting temperature compound (Sakura Finetek, Torrance, Calif., USA) or in paraffin. Four-μm-thick coronal-oriented femur sections were prepared for TRAP staining. Forty-μm-thick coronal-oriented femur sections were prepared for IF staining. The detailed protocols were described in a previous study study (Dou, J. Bone Min. Res. 33, 899-908 (2018)). Briefly, the sections were incubated with primary antibodies against mouse TLR2 (Santa Cruz Biotechnology, sc-21759, 1:200), Siglec15 (PA5-48221, Thermo Fisher Scientific, 1:100), ST3GAL1 (PA5-21721, Thermo Fisher Scientific, 1:50), and TRAP (Abcam, ab191406, 1:100) for 12 h at 4° C. For sialic acid detection, biotinylated Maackia Amurensis Lectin II (MAL II) (Vector Laboratories, CA, USA) was used to label the α2,3 linkage, and biotinylated Sambucus Nigra Lectin (SNA) (Vector Laboratories, CA, USA) was used to label the α2,6 linkage. Fluorescein-conjugated streptavidin (Vector Laboratories, CA, USA) was used for the addition of a fluorescent label to biotinylated sialic acid conjugates. A Zeiss LSM 780 confocal microscope and an Olympus BX51 microscope were used for image capture.
To sort Siglec15^+ cells, whole bone marrow was collected from mouse femurs and tibias after mice were euthanized with an overdose of inhaled isoflurane. Whole bone marrow cells were also used for culture and induction of BMMs using M-CSF (50 ng mL^−1) for higher Siglec15^+ cell enrichment in further studies. After red blood cell lysis, the cell number was counted, and the same numbers of cells were incubated with a biotinylated mouse Siglec15-specific antibody (PA5-48221, Thermo Fisher Scientific). […]

Siglec15 core enhancer = assay: ChIP-PCR of MYC binding at the Siglec15 core enhancer; type: cell-based, mouse; details: BMMs, stimulation for 48 h
Experimental: For the ChIP assay, primary BMMs were cultured with M-CSF or GM-CSF stimulation for 48 h to detect Siglec15 core enhancer DNA binding. M-CSF-primed cells were induced with RANKL for another 72 h to detect St3 gal1 core enhancer DNA binding. Afterward, the cells were cross-linked using 1% formaldehyde and lysed. DNA fragmentation was then achieved by enzymatic digestion with micrococcal nuclease (MNase). After digestion, 10% of the sample was preserved as the total input aliquot for further use. The remaining supernatant was then incubated with a ChIP-grade primary antibody against mouse p-CREB (Abcam, ab32096, 10 μg), c-FOS (Abcam, ab27793, 10 μg), or c-MYC (Abcam, ab9132, 10 μg). An anti-RNA Polymerase II antibody was used as the positive IP control, and normal rabbit IgG was used as the negative IP control. […] After elution, the DNA was then purified and recovered according to the manufacturer's instructions, and PCR detection was performed. The PCR primers used to detect MYC binding were as follows: Site #1, forward: [NT] ID NO: 1), and reverse: [NT] ID NO: 2); Site #2, forward: [NT] ID NO: 3), and reverse: [NT] ID NO: 4); and Site #3, forward: [NT] ID NO: 5), and reverse: [NT] ID NO: 6). The PCR primers used to detect FOS binding were as follows: forward: [NT] ID NO: 7), and reverse: [NT] ID NO: 8). The PCR primers used to detect CREB binding were as follows: forward: [NT] […]

MEK-ERK-MYC signaling = assay: Western blot of ERK, MYC phosphorylation and Siglec15 in BMMs; type: cell-based, mouse
Experimental: as §1
(§2) For the co-IP assays, cells were first lysed in the presence of protease inhibitors using IP buffer. […] SDS-PAGE was then used to separate the immunoprecipitates before transfer to a nitrocellulose membrane for immunoblotting procedures. […]

St3gal1 = St3gal1 transcription under estrogen; details: FIG. 26
TLR2 [1] = assay: ELISA of peptidoglycan-induced cytokine secretion from BMMs; type: cell-based, mouse; details: RANKL, or RANKL plus sialidase
Description: To test signaling activity of α2,3 sialylation, we removed α2,3 SA of TLR2 induced by RANKL by adding sialidase in the BMM culture. […] To examine the transcriptional mechanism of ST3Gal1 activation by RANKL, we analyzed 5′ promoter sequence of ST3Gal1 and recognized binding sites for CREB1 and FOS (downstream transcription factors of RANKL signaling) in the core enhancer (FIG. 16E). […] To confirm the functional activity of the FOS site, we constructed an enhancer reporter with ST3Gal1 enhancer and FOS mutant binding sites. […] To validate RANKL-induced sialylation in vivo, we crossed RANKL^ﬂ/ﬂ mice with the Dmp1-Cre strain to generate osteocyte-specific RANKL knockout mice (RANKLΔ^Dmp1). […] Furthermore, the Siglec15-TLR2 co-localization that can be observed in RANKL^ﬂ/ﬂ mice disappeared in RANKL^ΔDmp1 mice (FIG. 19B).

Siglec15-DAP12 = assay: Co-IP of Siglec15 with DAP12 and DAP12 tyrosine phosphorylation in BMMs; type: cell-based, mouse; details: BMMs induced with RANKL, sialidase or both
Experimental: To examine whether Siglec15 downstream signaling is activated by binding to sialylated TLR2, co-IP of Siglec15 with DAP12, a key factor for cell fusion, was conducted in BMMs induced with RANKL, sialidase or both. […] Moreover, tyrosine phosphorylation of DAP12 was detected in the co-IP experiment upon RANKL induction of Siglec15 clustering but was again impaired by sialidase treatment (FIG. 28d). We then tested whether TLR2 signaling is activated by binding to Siglec15. The recruitment of MyD88 to TLR2 was examined by co-IP. […] Removal of SA by sialidase reduced MyD88 recruitment and NFATc1 activation (FIG. 28e). […] Cell-cell fusion is a fundamental cellular activity of macrophages, and multinucleation is a complex process that is likely involved in multiple signaling pathways. Activation of downstream signaling by both Siglec15 and sialylated TLR2 is involved in different cells simultaneously, and both signaling pathways could also occur in each cell, which could be the critical mechanism for cell fusion.
as §2

p65 = p65 nuclear translocation (immunostaining, western blot) in BMMs; type: cell-based, mouse
TLR2 [2] = assay: Immunostaining of α2,3 and α2,6 sialic acid in WT BMMs; type: cell-based, mouse
Experimental: Because TLR2 has 4 N-linked glycosylation sites (Weber et al., 2004), to investigate the molecular mechanism of sialylation we tested α2,3 and α2,6 N-Linked SA modification, the two most common sialylation pattern in mammalian cells. […] To understand why α2,3 was sialylated, we examined each member expression profile of the entire sialyltransferase family. […] Moreover, α2,3 SA was immunocolocalized with TLR2, not with Siglec15 in WT and Siglec15^ΔLysM BMMs after RANKL stimulation for 24 h (FIGS. 16C, D).
Mouse bone specimens were first fixed and then decalcified using 10% EDTA (Sigma-Aldrich, St. Louis, Mo., USA) for 14 days with constant shaking. For the histological assays, the detailed protocols were reported in a previous study (Dou, J. Bone Min. Res. 33, 899-908 (2018)). In short, the samples were then dehydrated and embedded in optimal cutting temperature compound (Sakura Finetek, Torrance, Calif., USA) or in paraffin. Four-μm-thick coronal-oriented femur sections were prepared for TRAP staining. Forty-μm-thick coronal-oriented femur sections were prepared for IF staining. The detailed protocols were described in a previous study study (Dou, J. Bone Min. Res. 33, 899-908 (2018)). […]

GM-CSF: granulocyte-macrophage CSF, encoded by CSF2
osteoclastogenesis (WT BMMs; BMMs induced with RANKL+GM-CSF): cannot induce
expression of Siglec15 (Siglec15; BMMs treated with GM-CSF, immunostaining): cannot induce
binding of MYC with the core enhancer of Siglec15 (Siglec15 core enhancer): cannot induce

N#CC(=C(/N)Sc1ccccc1N)/C(C#N)=C(\N)Sc1ccccc1N [U0126, reference compound]
cell survival rate (WT BMMs; WT BMMs, U0126 10 μmol·L^-1): decreases
osteoclastogenesis (WT BMMs; WT BMMs, U0126 10 μmol·L^-1): decreases
Siglec15 upregulated by M-CSF (Siglec15; BMMs, M-CSF+U0126, immunostaining): abrogated
M-CSF-ERK-MYC-Siglec15 cascade (MEK-ERK-MYC signaling; M-CSF+U0126, 0-72 h): blocked this cascade

estrogen
RANKL-activated St3gal1 transcription (St3gal1): inhibits

B1: M-CSF: macrophage colony stimulating factor (protein, UniProt P09603 33-554, looked up)
Macrophage colony-stimulating …: EEVSEYCSHMIGSGHLQSLQRLIDSQMETSCQITFEFVDQEQLKDPVCYLKKAFLLVQDIMEDTMRFRDNTPNAIAIVQLQELSLRLKSCFTKDYEEHDKACVRTFYETPLQLLEKVKNVFNETKNLLDKDWNIFSKNCNNSFAECSSQDVVTKPDCNCLYPKAIPSSDPASVSPHQPLAPSMAPVAGLTWEDSEGTEGSSLLPGEQPLHTVDPGSAKQRPPRSTCQSFEPPETPVVKDSTIGGSPQPRPSVGAFNPGMEDILDSAMGTNWVPEEASGEASEIPVPQGTELSPSRPGGGSMQTEPARPSNFLSASSPLPASAKGQQPADVTGTALPRVGPVRPTGQDWNHTPQKTDHPSALLRDPPEPGSPRISSLRPQGLSNPSTLSAQPQLSRSHSSGSVLPLGELEGRRSTRDRRSPAEPEGGPASEGAARPLPRFNSVPLTDTGHERQSEGSFSPQLQESVFHLLVPSVILVLLAVGGLLFYRWRRRSHQEPQRADSPLEQPEGSPLTQDDRQVELPV
Siglec15 expression in separated Siglec15- BMMs (Siglec15; FCM, after 3 days of stimulation): restored Siglec15 expression
proportion of Siglec15+ BMMs (Siglec15; flow cytometry, Siglec15 ΔLysM mice, M-CSF 3 days): no obvious changes
proportion of Siglec15+ BMMs (Siglec15; flow cytometry, whole bone-marrow cells of Siglec15 fl/fl mice, M-CSF 3 days): significantly increased
proportion of Siglec15+ BMMs (Siglec15; immunofluorescent staining, Siglec15 fl/fl mice): significantly increased
MYC phosphorylation via ERK activation (MEK-ERK-MYC signaling; western blot): phosphorylated the Ser62 of MYC

B2: RANKL: receptor activator of NF-κappaB ligand (protein, UniProt O14788 140-317, looked up)
Tumor necrosis factor ligand …: IRAEKAMVDGSWLDLAKRSKLEAQPFAHLTINATDIPSGSHKVSLSSWYHDRGWAKISNMTFSNGKLIVNQDGFYYLYANICFRHHETSGDLATEYLQLMVYVTKTSIKIPSSHTLMKGGSTKYWSGNSEFHFYSINVGGFFKLRSGEEISIEVSNPSLLDPDQDATYFGAFKVRDID
peptidoglycan-induced secretion of IL-6 (TLR2 [1]): inhibited
peptidoglycan-induced secretion of TNF-α (TLR2 [1]): inhibited
association of Siglec15 with DAP12 (Siglec15-DAP12): induced the association of Siglec15 with DAP12
p65 nuclear translocation (p65): activated
α2,3 sialylation of TLR2 (TLR2 [2]): robustly induced
